Data as given in US7618787B2, “Method of screening compound capable of accelerating or inhibiting apoptosis, apoptosis accelarator and apoptosis inhibitor” (Hisamitsu Pharmaceutical Co., Inc., priority 2004, dated 2009).

Key:
p73 [1] = target: T1, p73 (Homo sapiens, UniProt O15350); experiment: Co-immunoprecipitation with p73 in transfected COS7 cells; format: binding; details: COS7, co-immunoprecipitation (FIG. 10, FIG. 28)
T1 construct: expressed in transfected cells; host or cells: COS7
T1 sequence (O15350 1-636): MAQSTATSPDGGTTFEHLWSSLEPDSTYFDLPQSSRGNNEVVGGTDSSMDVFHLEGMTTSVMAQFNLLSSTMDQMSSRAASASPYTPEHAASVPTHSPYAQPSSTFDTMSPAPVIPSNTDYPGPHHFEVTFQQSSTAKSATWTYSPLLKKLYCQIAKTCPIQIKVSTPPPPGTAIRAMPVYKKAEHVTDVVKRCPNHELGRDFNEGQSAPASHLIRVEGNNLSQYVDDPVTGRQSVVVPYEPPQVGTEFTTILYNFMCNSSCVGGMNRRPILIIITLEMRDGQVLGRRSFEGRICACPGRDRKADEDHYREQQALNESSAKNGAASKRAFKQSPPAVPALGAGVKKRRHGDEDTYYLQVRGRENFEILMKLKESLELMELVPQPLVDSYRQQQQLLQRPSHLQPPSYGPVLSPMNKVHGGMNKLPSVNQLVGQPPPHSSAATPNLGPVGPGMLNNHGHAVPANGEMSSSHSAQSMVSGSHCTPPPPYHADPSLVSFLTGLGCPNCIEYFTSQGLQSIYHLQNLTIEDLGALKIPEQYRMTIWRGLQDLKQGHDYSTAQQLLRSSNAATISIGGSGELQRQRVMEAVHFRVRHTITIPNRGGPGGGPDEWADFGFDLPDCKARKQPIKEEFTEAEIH
Method: Whole cell lysates were centrifuged at 15000 rpm for 15 minutes to remove cell debris. The obtained supernatant was pretreated at 4° C. for 30 minutes with protein G-Sepharose (50% slurry, 30 μL; Amersham Pharmacia Biotech). After centrifugation, the supernatant was incubated at 4° C. for 2 hours with an anti-HA polyclonal (Medical and Biological Laboratories) or anti-FLAG monoclonal antibody. The immunocomplexes were precipitated at 4° C. for 30 minutes with protein G-Sepharose beads. After collection by brief centrifugation, the immunoprecipitates were washed three times with lysis buffer, then suspended in 30 μL of 2×Laemmli SDS sample buffer, and treated at 100° C. for 5 minutes. The supernatant was loaded onto 10% SDS-PAGE and analyzed by immunoblot as described above.
To investigate whether IKK-α interacted with p73 in cultured mammal cells, whole cell lysates were prepared from transfected COS7 cells, then immunoprecipitated with an anti-FLAG or anti-HA antibody, and analyzed by immunoblot using an anti-p73 or anti-FLAG antibody, respectively. […] Likewise, HA-p73β was co-immunoprecipitated with FLAG-IKK-α (data not shown). […] To identify determinants of p73 participating in the interaction with IKK-α, several deletion mutants of p73 fused to GST were prepared and examined for their abilities to bind to FLAG-IKK-α by in-vitro pull-down assay. These mutants were designed on the basis of the functional domains of p73 including transactivation, DNA-binding, oligomerization, and SAM domains (FIG. 12).

p53 = p53 protein level (stabilization) by immunoblot in cotransfected COS7 cells; format: cell-based; details: COS7 cotransfection (FIG. 14, 15)
Method: Cells were transiently transfected with a total of 2 μg of expression plasmids. After 48 hours of the transfection, the cells were washed with ice-cold PBS and suspended in lysis buffer (pH 8.0; which contained 25 mM Tris-Cl, 137 mM sodium chloride, 1% Triton X-100, 1 mM phenylmethylsulfonyl fluoride (PMSF), and protease inhibitor mix (Roche Molecular Biochemicals)), followed by brief sonication. After centrifugation at 15000 rpm for 10 minutes, the supernatant was collected and assayed for protein concentrations by the Bradford assay (Bio-Rad). Equal amounts of lysates (protein amount: 50 μg) from the whole cells were denatured by boiling in Laemmli SDS-sample buffer, then separated on 10% SDS-polyacrylamide gel (SDS-PAGE), and transferred at room temperature for 1 hour to polyvinylidene difluoride (PVDF) membranes (Immobilon-P; Millipore) in Tris-glycine buffer containing 10% methanol. The membranes were blocked at room temperature for 1 hour with Tris-buffered saline (TBS-T) containing 5% skim milk and 0.1% Tween 20.
As previously reported, some protein kinases (e.g., c-Abl and PKCδ) that interact with p73 can stabilize p73. To confirm whether IKK-α influenced the stabilization of p73, COS7 cells were transfected with a constant amount of HA-p73α expression plasmid together with or without varying amounts of IKK-α expression plasmids and examined for HA-p73α protein levels. […]

p73 [2] = experiment: Luciferase reporter assay, p73-dependent transcriptional activation in H1299 cells; format: cell-based, human
Method: H1299 cells deficient in p53 were seeded at a density of 5×10^4 cells/well onto a 12-well tissue culture dish and transiently transfected with 100 ng of luciferase reporter construct (which carried a p53/p73-responsive element derived from a p21^WAF1, Bax, or MDM2 promoter), 10 ng of pRL-TK Renilla luciferase cDNA, and 25 ng of given expression plasmid (p53, HA-p73α, or HA-p73β) together with or without varying amounts of IKK-α or FLAG-IKK-β expression plasmids. The total amount of DNA per transfection was kept constant (510 ng) with a pcDNA3 empty plasmid. After 48 hours from the transfection, the cells were washed twice with ice-cold PBS and suspended in passive lysis buffer (Promega). Both firefly and Renilla luciferase activities were assayed by use of dual-luciferase reporter assay system (Promega) according to the instruction. […] intensity was measured with TD-20 luminometer (Turner Design). The firefly luciferase signal was normalized based on the Renilla luciferase signal. Results obtained from at least 3 transfections were indicated by mean value±standard deviation.
To explore the functional implication of interaction between IKK-α and p73, the effect of IKK-α on p73-mediated transcriptional activation was first examined. H1299 cells deficient in p53 were transfected with a HA-p73α or HA-p73β expression plasmid and a luciferase reporter construct under the control of a p21^WAF1, Bax, or MDM2 promoter together with or without varying amounts of IKK-α expression plasmids. […] By contrast, increase in p53-responsive reporter gene activity was not induced by IKK-α (FIG. 22). To examine the specificity of p73-dependent transcriptional activation mediated by IKK-α, whether IKK-β enhanced p73 transcriptional activity to p53/p73-responsive promoters was confirmed.

- complex formation with HA-p73α (p73 [1]): formed stable complexes
B1: IKK-α: IKK-α protein, amino acid sequence SEQ ID NO: 24, expressed from plasmid; apoptosis enhancer (protein, listed as Homo sapiens)
chain: MERPPGLRPGAGGPWEMRERLGTGGFGNVCLYQHRELDLKIAIKSCRLELSTKNRERWCHEIQIMKKLNHANVVKACDVPEELNILIHDVPLLAMEYCSGGDLRKLLNKPENCCGLKESQILSLLSDIGSGIRYLHENKIIHRDLKPENIVLQDVGGKIIHKIIDLGYAKDVDQGSLCTSFVGTLQYLAPELFENKPYTATVDYWSFGTMVFECIAGYRPFLHHLQPFTWHEKIKKKDPKCIFACEEMSGEVRFSSHLPQPNSLCSLIVEPMENWLQLMLNWDPQQRGGPVDLTLKQPRCFVLMDHILNLKIVHILNMTSAKIISFLLPPDESLHSLQSRIERETGINTGSQELLSETGISLDPRKPASQCVLDGVRGCDSYMVYLFDKSKTVYEGPFASRSLSDCVNYIVQDSKIQLPIIQLRKVWAEAVHYVSGLKEDYSRLFQGQRAAMLSLLRYNANLTKMKNTLISASQQLKAKLEFFHKSIQLDLERYSEQMTYGISSEKMLKAWKEMEEKAIHYAEVGVIGYLEDQIMSLHAEIMELQKSPYGRRQGDLMESLEQRAIDLYKQLKHRPSDHSYSDSTEMVKIIVHTVQSQDRVLKELFGHLSKLLGCKQKIIDLLPKVEVALSNIKEADNTVMFMQGKRQKEIWHLLKIACTQSSARSLVGSSLEGAVTPQTSAWLPPTSAEHDHSLSCVVTPQDGETSAQMIEENLNCLGHLSTIIHEANEEQGNSMMNLDWSWLTE
- stabilization of p53 (p53): no detectable effect on the stabilization of FLAG-p53
- luciferase activity without p73 (p73 [2]; H1299, IKK-α alone): almost no effect on luciferase activity
- p73-dependent transcriptional activation of p21WAF1, Bax, MDM2 promoter reporters (p73 [2]; H1299, coexpression with HA-p73α or HA-p73β (FIG. 20, 21, 23)): Remarkable increase in p73-dependent transcriptional activation was dose-dependently observed
- induction of endogenous p21WAF1 mediated by p73α (p73 [2]; H1299, immunoblot (FIG. 24)): remarkably up-regulated
